{"source": "paper PMC6426597", "origin": "cited, not measured here", "target": "CD40 (Homo sapiens) (UniProt P25942)", "sequence (P25942 21-193)": "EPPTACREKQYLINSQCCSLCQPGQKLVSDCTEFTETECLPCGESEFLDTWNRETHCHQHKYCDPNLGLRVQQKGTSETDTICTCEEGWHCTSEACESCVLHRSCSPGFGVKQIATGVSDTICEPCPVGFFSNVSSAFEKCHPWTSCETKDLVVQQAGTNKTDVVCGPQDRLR"}
{"substance": "TSST-1 (from UniProt P06886)", "values": [{"measurement": "Kd", "result": 2700, "unit": "nM"}]}
